Test results taken from paper PMC4057019 (Matrix biology : journal of the International Society for …, 2014).

Columns and labels:
[1] = molecular target: recombinant human TLR-2 (Met1 to Leu590) (human, UniProt O60603 21-590, labeled with fluorophore NT-647); assay: MST
[2] = molecular target: recombinant human TLR-4 (Glu24 to Lys631) (human, UniProt O00206 24-631, labeled with fluorophore NT-647); assay: MST
Chain of recombinant human TLR-4 (Glu24 to Lys631) (O00206 24-631): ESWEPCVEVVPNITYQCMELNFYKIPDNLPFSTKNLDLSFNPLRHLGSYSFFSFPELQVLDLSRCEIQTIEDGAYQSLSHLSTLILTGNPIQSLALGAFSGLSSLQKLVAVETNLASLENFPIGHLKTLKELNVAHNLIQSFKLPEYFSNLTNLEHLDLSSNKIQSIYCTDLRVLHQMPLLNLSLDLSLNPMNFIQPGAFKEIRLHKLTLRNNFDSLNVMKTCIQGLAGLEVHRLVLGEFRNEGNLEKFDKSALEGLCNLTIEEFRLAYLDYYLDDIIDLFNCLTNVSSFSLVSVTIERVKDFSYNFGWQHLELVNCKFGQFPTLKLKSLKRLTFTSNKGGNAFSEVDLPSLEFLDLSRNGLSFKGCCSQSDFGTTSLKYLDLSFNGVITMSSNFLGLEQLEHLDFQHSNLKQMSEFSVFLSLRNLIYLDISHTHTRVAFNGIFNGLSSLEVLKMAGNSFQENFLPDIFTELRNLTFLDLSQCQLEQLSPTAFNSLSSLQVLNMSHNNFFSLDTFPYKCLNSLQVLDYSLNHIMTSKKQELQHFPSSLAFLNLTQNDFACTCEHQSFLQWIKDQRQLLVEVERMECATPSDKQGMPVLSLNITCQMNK

Chain of recombinant human TLR-2 (Met1 to Leu590) (O60603 21-590): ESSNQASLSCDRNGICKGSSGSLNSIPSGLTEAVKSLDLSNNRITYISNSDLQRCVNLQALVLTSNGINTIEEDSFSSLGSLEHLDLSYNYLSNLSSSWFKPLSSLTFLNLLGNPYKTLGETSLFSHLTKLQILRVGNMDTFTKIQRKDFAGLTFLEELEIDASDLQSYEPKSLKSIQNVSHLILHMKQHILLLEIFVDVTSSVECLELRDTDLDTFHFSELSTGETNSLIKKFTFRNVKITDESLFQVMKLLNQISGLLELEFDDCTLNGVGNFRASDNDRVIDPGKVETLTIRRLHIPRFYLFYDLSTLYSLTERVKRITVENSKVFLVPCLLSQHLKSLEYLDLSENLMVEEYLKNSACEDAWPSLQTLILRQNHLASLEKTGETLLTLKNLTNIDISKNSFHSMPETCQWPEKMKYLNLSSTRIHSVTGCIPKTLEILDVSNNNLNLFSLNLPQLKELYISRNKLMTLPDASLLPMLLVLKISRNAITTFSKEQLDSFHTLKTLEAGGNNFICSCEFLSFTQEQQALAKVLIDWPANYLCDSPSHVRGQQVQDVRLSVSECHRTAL

B1: human biglycan (soluble biglycan proteoglycan) (natural protein, UniProt P21810 38-368, looked up)
chain: DEEASGADTSGVLDPDSVTPTYSAMCPFGCHCHLRVVQCSDLGLKSVPKEISPDTTLLDLQNNDISELRKDDFKGLQHLYALVLVNNKISKIHEKAFSPLRKLQKLYISKNHLVEIPPNLPSSLVELRIHDNRIRKVPKGVFSGLRNMNCIEMGGNPLENSGFEPGAFDGLKLNYLRISEAKLTGIPKDLPETLNELHLDHNKIQAIELEDLLRYSKLYRLGLGHNQIRMIENGSLSFLPTLRELHLDNNKLARVPSGLPDLKLLQVVYLHSNNITKVGVNDFCPMGFGVKRAYYNGISLFNNPVPYWEVQPATFRCVTDRLAIQFGNYKK
modifications: two chondroitin/dermatan sulfate chains
[1]
  Kd: 31 nM
[2]
  Kd: 28 nM
